Measured values published in patent US20250066499A1 (SUNSHINE GUOJIAN PHARMACEUTICAL SHANGHAI, published 2025).

T1: CD73 protein on the surface of tumor cells (human, UniProt P21589 27-549)
T1 sequence (looked up): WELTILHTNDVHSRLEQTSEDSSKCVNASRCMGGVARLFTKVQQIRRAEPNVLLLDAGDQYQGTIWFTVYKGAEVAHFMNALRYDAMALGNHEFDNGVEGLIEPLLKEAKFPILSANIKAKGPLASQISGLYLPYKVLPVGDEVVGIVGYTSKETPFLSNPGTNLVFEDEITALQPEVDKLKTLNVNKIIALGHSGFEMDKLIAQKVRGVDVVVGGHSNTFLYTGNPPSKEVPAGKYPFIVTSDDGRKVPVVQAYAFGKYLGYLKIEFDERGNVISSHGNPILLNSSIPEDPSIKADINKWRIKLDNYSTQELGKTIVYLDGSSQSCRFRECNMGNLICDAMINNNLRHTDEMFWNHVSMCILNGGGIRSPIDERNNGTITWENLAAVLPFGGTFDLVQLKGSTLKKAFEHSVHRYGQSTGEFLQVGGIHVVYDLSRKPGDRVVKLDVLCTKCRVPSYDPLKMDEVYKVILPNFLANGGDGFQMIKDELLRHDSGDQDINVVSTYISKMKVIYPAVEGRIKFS

T2: human CD73-His protein (human, UniProt P21589 27-549)
T2 sequence: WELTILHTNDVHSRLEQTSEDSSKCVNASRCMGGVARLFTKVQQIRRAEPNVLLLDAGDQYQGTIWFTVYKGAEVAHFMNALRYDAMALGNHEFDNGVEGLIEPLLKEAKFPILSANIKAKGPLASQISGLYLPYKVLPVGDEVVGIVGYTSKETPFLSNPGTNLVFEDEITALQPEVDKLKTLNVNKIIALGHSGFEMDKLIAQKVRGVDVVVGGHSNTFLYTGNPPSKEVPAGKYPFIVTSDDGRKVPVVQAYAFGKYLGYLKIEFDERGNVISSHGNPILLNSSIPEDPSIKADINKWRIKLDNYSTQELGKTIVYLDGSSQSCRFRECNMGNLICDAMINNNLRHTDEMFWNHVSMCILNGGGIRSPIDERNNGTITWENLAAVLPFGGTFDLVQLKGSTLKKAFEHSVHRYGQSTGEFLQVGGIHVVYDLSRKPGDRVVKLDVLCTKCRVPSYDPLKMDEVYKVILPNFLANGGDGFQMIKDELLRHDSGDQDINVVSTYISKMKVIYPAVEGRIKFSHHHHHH

T3: mouse CD73 protein (mouse, UniProt Q61503 29-549, limits assumed)
T3 construct: Bought protein; also called CD73-mouse
T3 sequence (looked up): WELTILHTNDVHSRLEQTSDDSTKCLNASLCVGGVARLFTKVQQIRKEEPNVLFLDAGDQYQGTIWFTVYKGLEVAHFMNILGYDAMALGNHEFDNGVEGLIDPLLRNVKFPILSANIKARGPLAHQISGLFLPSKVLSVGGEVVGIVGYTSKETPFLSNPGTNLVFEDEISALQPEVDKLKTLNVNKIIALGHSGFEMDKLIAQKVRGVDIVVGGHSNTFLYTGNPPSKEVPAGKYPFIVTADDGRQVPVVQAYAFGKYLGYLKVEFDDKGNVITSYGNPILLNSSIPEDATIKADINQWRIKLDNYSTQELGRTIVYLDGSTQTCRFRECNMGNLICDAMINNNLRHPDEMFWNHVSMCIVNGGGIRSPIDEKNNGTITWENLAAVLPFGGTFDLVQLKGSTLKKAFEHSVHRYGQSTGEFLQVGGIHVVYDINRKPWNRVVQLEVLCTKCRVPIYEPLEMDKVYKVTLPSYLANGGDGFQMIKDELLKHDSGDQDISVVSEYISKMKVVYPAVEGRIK

T4: cynomolgus monkey CD73 protein (cynomolgus monkey, UniProt A0A2K5V5U7 27-547)
T4 construct: Bought protein; also called CD73-cynomolgus monkey
T4 sequence: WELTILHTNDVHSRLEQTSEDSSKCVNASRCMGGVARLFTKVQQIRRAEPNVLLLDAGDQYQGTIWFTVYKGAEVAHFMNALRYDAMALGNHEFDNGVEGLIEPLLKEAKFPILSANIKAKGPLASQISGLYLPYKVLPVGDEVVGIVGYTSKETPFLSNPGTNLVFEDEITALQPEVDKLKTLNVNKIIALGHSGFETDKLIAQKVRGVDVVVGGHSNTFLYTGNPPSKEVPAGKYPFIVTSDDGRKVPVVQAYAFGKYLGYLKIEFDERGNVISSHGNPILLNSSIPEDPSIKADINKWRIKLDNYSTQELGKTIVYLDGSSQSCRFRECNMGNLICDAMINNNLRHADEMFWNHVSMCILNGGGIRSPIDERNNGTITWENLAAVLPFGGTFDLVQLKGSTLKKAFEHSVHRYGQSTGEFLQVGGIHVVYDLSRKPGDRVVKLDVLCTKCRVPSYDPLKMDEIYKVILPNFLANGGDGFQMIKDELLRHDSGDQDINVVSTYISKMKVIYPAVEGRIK

B1: 56B10-HuV31 (antibody, human IgG4, V domains shown)
VH: QVQLQQSGAEVKKPGASVKVSCKASGYTFTRYYIYWVRQRPGQGLEWIGWIYPGNFNTKYNEKFKGRATLTADTSASTAYMELSSLTSEDTAVYYCARDVYDYAGFAYWGQGTLVTVSS
VL: DIQLTQSPSFLSASVGDRVTITCKASQGVATAVAWYQQKPGQSPKLLIYWASTRHTGVPDRFSGSGSGTEFTLTISSLQPEDFATYYCQQYSSYPWTFGQGTKVEIK
notes: Humanized
B2: 48A11-HuV33 (antibody, human IgG4, V domains shown)
VH: QVQLVQSGAEVKKPGASVKVSCKASGYTFTSYWMHWVRQAPGQGLEWIGEINPSIGRTNYNEKFKSRVTLTRDTSTSTAYMELSSLRSEDTAVYYCARRVYGTMDYWGQGTLVTVSS
VL: DIQMTQSPSSLSASVGDRVTITCKASQDINSYLSWFQQKPGKSPKLLIYRANIWVDGVPSRFSGSGSGQDYTFTISSLQPEDIATYYCLQYDELYTFGQGTKVEIK
notes: Humanized

Key:
[1] = biological target: T1, CD73 protein on the surface of tumor …; assay: cell-based or functional assay
human CD73-His protein = biological target: T2, human CD73-His protein; assay: cell-based or functional assay
[2] = biological target: T1, CD73 protein on the surface of tumor …; assay: flow cytometry on H292 cells
Description: MDA-MB-231 cells (triple-negative breast cancer), H292 cells (human lung cancer cells), and A375 cells (human malignant melanoma cells), all in their logarithmic growth phase, were collected respectively. The cells were washed once with RPMI-1640 basic medium and then adjusted to a cell concentration of 2.0×10⁶ cells/mL in RPMI-1640 basic medium containing 1% BSA (antibody diluent). The antibodies to be tested were diluted in a 3-fold gradient using the antibody diluent, and 100 μL of each concentration of the test antibodies was mixed with 100 μL of cells in a 96-well cell culture plate and incubated at 4° C. for 1 hour (the maximum working concentration of the test antibodies was 500 nM, with 1×10⁵ target cells per well). The cells were washed twice with PBS to remove unbound test antibodies. Then, the cells were mixed with 200 μL of 5 μg/mL FITC-labeled goat anti-human IgG-Fc secondary antibody and incubated at 4° C. for 30 minutes. The cells were washed twice again with PBS to remove unbound secondary antibodies, and finally, the cells were resuspended in 200 μL of PBS. The binding affinity of the test antibodies to the cells was determined using a flow cytometer.

mouse CD73 protein = biological target: T3, mouse CD73 protein; assay: SPR Biacore 8K, antibody captured on Protein A/G
[3] = biological target: T4, cynomolgus monkey CD73 protein; assay: SPR Biacore 8K, antibody captured on Protein A/G, antigen in flow

Binder	IC50, inhibition of CD73 enzyme activity on A375 cells [1]	IC50, inhibition of CD73 enzyme activity on H292 cells [1]	IC50, inhibition of CD73 enzyme activity on MDA-MB-231 cells [1]	IC50 (nM), inhibition of enzyme activity of soluble CD73-His (AMP/ATP, Cell Titer-Glo) (human CD73-His protein)	EC50 [2]	binding result (mouse CD73 protein)	Kd [3]	koff [3]	kon [3]
B1	1.34 nM	0.818 nM	0.61 nM	3.66 nM	2.55 nM	no binding	7.13 nM	0.000712 s⁻¹	99900 M⁻¹ s⁻¹
B2	1.48 nM	0.859 nM	0.566 nM	4.27 nM	2.31 nM	no binding	12.1 nM	0.000883 s⁻¹	72800 M⁻¹ s⁻¹
